This series in a line: yeast display, Sf9 membrane polyspecificity reagent, FACS + sequencing; frameworks hold sequencing errors. The gist of the method:
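Synthetic nanobody libraries on Saccharomyces cerevisiae BJ5465 were galactose-induced for 36–48 hours, stained 1 hour at 4 °C with 10% biotinylated, detergent-solubilized Sf9 membrane reagent and enriched on streptavidin microbeads. FACS then separated cells into low and high (top ~1%) gates by anti-HA (expression) and streptavidin (reagent binding) fluorescence. Genes were colony-PCR amplified, MiSeq 2 × 250 sequenced and CDR-length filtered. A clone's polyreactivity label is that of its gate of origin.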
In the case of “QVQLVESGGGLVQAGGSLRLSCAASGITFIWYAMGWYRQAPGKERELVAAISTSGGSTYYADSVKGRFTISRDNAKNTVYLQMNSLKPEDTAVYYCAAVSGGVSRSYDRYYWGQGTQVTVSS”, the “polyreactivity (PSR sort gate)” value was “high polyreactivity”.

Regarding “QVQLVESCGGLVQAGCSLRLSCAASGSIFDGNAMGWYRQAPGKERDLVAVISSRGTRTYYADSVKGRFTISRDNAKITVYLQMNSLKPEDTAVYYFNTRTSDLNGSGDYWGQGTQVTVSS”, the “polyreactivity (PSR sort gate)” value was “high polyreactivity”.

For “QVQLVESGGRLVQAGGSLRLSCAASGITFYLNAMGWYRQAPGKERELVADITVSGGSTYYADSVKGRFTISRDNAKNTVYLQMNSLKPEDTAVYYCAADLTISYSQEYYYWGQGNQVTVSS”, the “polyreactivity (PSR sort gate)” value is on record as “low polyreactivity”.

On to “QVQLVESGGGLVQAGGSLRLSCAASGRIFYYAMGWYRQAPGKERELVAVITYSGGNTYYADSVKGRFTISRDNAKNTVYLQMNSLKPEDTAVYYCAKAVSTKISRYYHYYKHYDYWGQGTQVTVSS”, for which the “polyreactivity (PSR sort gate)” value is “low polyreactivity”.

Take “QVQLVESGGGLVQAGGSLRLSCTASGIIFGTFAMGWYRQAPGKERELVAAISSSGVSTYYADSVKGRFTISRDNAKNTVYLQMNSLKPEDTAVYYCAAPLHYGYYYWGQGTQVTVSS”: the “polyreactivity (PSR sort gate)” value is “high polyreactivity”.

With “QVQLVESGGGLVQAGGSLRLSCAASGSTFWSNAMGWYRHAPGKERELVAVISRRCVRKYYADSVKGRFTISRDNAKNNVYLQMNSLKPEDTAVFYCNAEVYGELDYWGQGTQVNVSS”, the “polyreactivity (PSR sort gate)” value was “low polyreactivity”.

Take “QVQLQESGGVLEQARGSLRLSCAASGFIFARNYMGWYSQAPGKERELVAGIGVGAITNYADSVKGRFTISRDNAKNTVYLQMNSLETEESAVYYCAVGDTVLGYHYYWGQGTQVTVSN”: the “polyreactivity (PSR sort gate)” value was “low polyreactivity”.

Consider “QVQLVESGGGLVQAGGILRISCAASGRTFASNAMGWYRRAPGKERELVAAMSSSGGRTYYADSVKGRITISRDNAKNTVYLQMNSLKPEYTPVFYCAKVGPVYKYDYWGQGTQVTVSS”, for which the “polyreactivity (PSR sort gate)” value is “high polyreactivity”.

For “QVQLVESGGGLVQAGGSLRISFAASGFTFNLYAMGWYRQAPGKERELVAAISWSGGRTYYADSVKGRFTISRDNAKNTVYLQMNSLKPEDTAVYYCNAPYWTSKSRFDYWGQGTQVTVSS”, the “polyreactivity (PSR sort gate)” value was “low polyreactivity”.

Take “QVQLVESGGGLVQAGGSLRLSCAASGNIFRYNAMGWYRQAPGKERELVAAISRGGSTKYADSVKGRFTISRDNAKNTVYLQMNSLKPEDTAVFYCARVKSTGSTFASPYDYWGQGTQVTVSS”: the “polyreactivity (PSR sort gate)” value was “high polyreactivity”.

With “QVQLVESGGGLVQAGGSLRLSCAASGYTYPQNAMGWYIKAPGKERDLFAAISRSGGSTNYADSVKGRNTISRDNAKNTVYLQMNILKPEDTAVYYCARYNYTRQTRVEYGYWGQCTQVTVSS”, the “polyreactivity (PSR sort gate)” value is on record as “high polyreactivity”.

As for “QVQLVESGGGLVQAGGSLRLSCAASGFTFYRNDMGWYRQAPGKEREFVAAITTSGGSTYYADSVKGRFTISRDNAKYTVYLQMNSLKPEDTAVYYCNAYGDGYWKTFGYWGQGTQVTVSS”, the “polyreactivity (PSR sort gate)” value was “high polyreactivity”.

For “QVQLVESGGGLVQAGGSLRLSFAASGRTFVINAMGWYRQAPGKERELVAAITWRGGSTYYADSVKGRFTISRDNAKNTVYLQMNSLKPEDTAVYYCAARWFPWLQLKRYDYWGQGTQVTVSS”, the “polyreactivity (PSR sort gate)” value was “low polyreactivity”.

Turning to “QVQLVESGGGLVQAGGSLRLSCAASGSTFVGYAMGWYRPAPGKDRELFAAITRGGGSTYYADSVKWRFTISRDNAKNTVYLQINSLKPEDTAVYYCAAYQHPGLRTSYEYWGQGTQVTVSS”, the “polyreactivity (PSR sort gate)” value is reported as “low polyreactivity”.

As for “QVQLVESGGGLVQAGGSLRLSCAASGSIFKYYAMGWYRQAPGKERELVAAISVRGSRTYYADSVKGRFTISRDNAKNTVYLQMNSLKPEDTAVYYCAADGGYIPPYGYDYWGQGTQVTVSS”, the “polyreactivity (PSR sort gate)” value is “high polyreactivity”.

On to “QVQLVESGGGLVQAGGSLRLSCAASGTFVLSAMGWYRPAPGKERELVAAISKTGRTYYADSVKGRFTISRDNAKNTVYLQMNSLKPEDTSVYYCAAQRFSKFGYWGQGTQVTVSS”, for which the “polyreactivity (PSR sort gate)” value is “high polyreactivity”.

“QVQLVESGGGLVQAGGSLRLSCADSGSTLYRYAMGWYRQAPGKERELVDAISSAGSTHYADSVKGRFTISRDNAKNTVYLQMNSLKPEDTAVYYCNAVRKTFDYNYWGQGTQVTVSS”: the “polyreactivity (PSR sort gate)” value is listed as “high polyreactivity”.

Take “QVQLVESGGGLVQAGGSLRLSCAASGITFDDYVMGWYRQAPGKERELVAAITRSGGRTYYADSVKGRFTISRDNAKNTVYLQMNSLKPEDTAVYYCAARHRDNRFDYWGQGTQVTVSS”: the “polyreactivity (PSR sort gate)” value is reported as “high polyreactivity”.

Regarding “QVQLVESGGGLVQAGGSLRLSCAASGYIISYNTMGWYRPAPGKERELVASIRWGGGRTYYADSVKGRFTISRDNAKNTVYLQLNSLKPEDTAVYYCNVKSSRFLDVGRMEYWGQGTQVTVSS”, the “polyreactivity (PSR sort gate)” value is reported as “high polyreactivity”.

As for “QVQLVESGGGLVQAGGSLRLSCAASGITFSVYAMGWYRQAPGKERELVASISSGGTSTYYADSVKGRFTISRDNAKNNVYLQMNSLKTEDSAVYYCAAYSYYTGDQYSYDYWGQGTQVTVSS”, the “polyreactivity (PSR sort gate)” value is reported as “low polyreactivity”.

Consider “QVQLVESGGGLVQAGGSLRLSCAASGYTFVIYAMGWYRQAPGKERELVAAITTIGGRTYYADSVKGRFTISRDNAKNTVYLQMNSLKPEDTAVYYCAADIRSNRLYDGGYWGQGTHVTVSS”, for which the “polyreactivity (PSR sort gate)” value is given as “low polyreactivity”.

For the sequence “QVQLVESGGGLVQAGGSLRLSCAASGRNIYSNAMGWYRQAPGKERELVAAIRWRDGATYYADSVKGRFTISRDNAKNTVYLQMNSLKPEDTAVYYCAAVYWGEEYEYWGQGTQVTVSS”, the “polyreactivity (PSR sort gate)” value is given as “low polyreactivity”.

As to “QVQLVESGGGLVQAGGSLRLSCAASGRIFRYNAMGGYRQAPGKERELVAAITWRGGSTYYADSVKGRFTISRDNAKNTVYLQMNSLKPEDTAVYYCNKVDSLTFEYDYWGQGTQVTVSS”, the “polyreactivity (PSR sort gate)” value is “high polyreactivity”.

On to “QVQLVESGGGLVQAGGSLRLSCAASGRTFYSKAMGWYRQAPGKERELVAAISSSGSSTSYADSVKGRFTMSRDNAKNTVYLQMNSLKPEDTAVYYCAARTKRRANRDYWGQGTQVTVSS”, for which the “polyreactivity (PSR sort gate)” value is recorded as “high polyreactivity”.

Consider “QVQLVESGGGLVQAGGSLRLSCAASGRTFGFNAMGWSRPAPGKERELVAVITRGGSTYADSVKGRFTISRDNAKNTVYLQMNSLKPEDTAVYYCAAYRYGFKTWMDYWGQGTQVTVSS”, for which the “polyreactivity (PSR sort gate)” value is given as “high polyreactivity”.

For the sequence “QVQLVESGGGLVQAGGSLRLSCAASGRTFYRYAMGWYRQAPGKERELVAAITTGGGSTYYADSVKGRFTISRDNAKNTVYLQMNSLKPEETAVYYCNVYSSYTRRTLGDYWGQGTQVTVSS”, the “polyreactivity (PSR sort gate)” value is on record as “high polyreactivity”.

For “QVQLVESGGGLVQAGGSLRLSCAASGLIFPRNAMGWYRQAPGKERELVAAITSGGGTNYADSVKWRFTISRDNAKNTVYLQMNSLIPEDTAVYYCAADYSVASPDGPYVIYDYWGQGTQVTVSS”, the “polyreactivity (PSR sort gate)” value was “low polyreactivity”.

For the sequence “QVQLVESGGGLVQAGGSLRLSCAASGFILLYYAMGWYRQAPGKERELVAANSWTGGRTYYADSVKGRFTISRDNAKNTVYLQMTSLKPEDSAVYYCNTDKFFGRKYGYWGQGTQVTVSS”, the “polyreactivity (PSR sort gate)” value is “low polyreactivity”.

Take “QVQLVESGGGLVQAGGSLRLSCAASGGIFTQYAMGWSRQAPWKERELVAAITRSGGTYYADSVKGRFTISRDNAKNTVYLQMNSLKPEDTAVYYCAAEWIDAYYDYDYWGQGTQVTVSS”: the “polyreactivity (PSR sort gate)” value is reported as “high polyreactivity”.

Take “QVQLVESGGGCSGGRSLRLSCAASGLIFVDNAMGWYRQAPGKERELVAAITWSTGSTYYADSVKGRFTISRDNAKNTVYLQMNSLKPEDTAVYYCNKRYKYRYYYWGQGTQVTVSS”: the “polyreactivity (PSR sort gate)” value is reported as “low polyreactivity”.

Consider “QVQLVESGGGLVQAGGSLRLSCAASGRTFQRYTMGWYRPAPGKETELVAVITNGGTRTYYADYVKGRLTISRDYAKNTVYLQMNSLKPEYTAVYYCAARVRYTANYDYWGQGTQVTVSS”, for which the “polyreactivity (PSR sort gate)” value is listed as “high polyreactivity”.

On to “QVQLVESGGGLVQAGGSLRLSCAASGNILGYNAMGWYRQAPGKERELVAAISWIGGSTYYADSVKGRFTISRDNAKNTVYLQMNSLKPEDTAVYYCAARRVIYYPAFYYDYYYWGQGTQVTVSS”, for which the “polyreactivity (PSR sort gate)” value is listed as “low polyreactivity”.

Take “QVQLVESGGGLVQAGGSLRLSCAASGSIFLTYDMGWYRQAPGKERELVAAITGSGDSTYYADSVKGRFTISRDNAKNTVYLQMNSLKPEDTAVYYCNADGPSTPWVDYGYWGQGTQVTVSS”: the “polyreactivity (PSR sort gate)” value was “low polyreactivity”.

As to “QVQLVESGGGLVQAGGTLRLSCAASGSTFAVNAMGWYRQPPGKERELVAAISRSGGSTYYADSVKGRFTISRDNAKNTDYLQMKSLKPEDTAFYYCNTRTPYWFKSDYWGQGTQVTVSS”, the “polyreactivity (PSR sort gate)” value is recorded as “low polyreactivity”.

For “QVQLQESGGGLVQAGGSLRLSCAASGPISRRSTMGWYRQAPGKERELVTAITRGTNTNYADSVKGRFTISRDNAKNTEYLQMNSLKPEDTAVFYCAAYGVLKPSRGDAVFHRYWGQGTQVTVSS”, the “polyreactivity (PSR sort gate)” value is given as “low polyreactivity”.

On to “QVQLVESGGGLVQAGGSLRLSCAASGSIFGVYTMGWYRQAPGKERELVAAISGSGGSTYYADSVKGRFTISRDNAKNTVYLQMNSLKPEDTAVYYCATRFPKIPPYDSWGQGTQVTVSS”, for which the “polyreactivity (PSR sort gate)” value is “low polyreactivity”.

For the sequence “QVQLVESCGGLVQAGGSLRLSCAASGRIFGIYSMGWYRQAPGKEREVVARITKSGGSTYYADSVKGRFTISRDNAKNTVYLQMNSLKPEDTAVYYCAASYYGKRDRAGPYYSFDYWGQGTQVTVSS”, the “polyreactivity (PSR sort gate)” value is given as “high polyreactivity”.

For the sequence “QVQLVESGGGLVQAGGSLRLSCAASGSIFGPYAMGWYRQAPGKERELVAAITWSGDSTYYADSVKGRFTISRDNAKNTVYLQMNSLKTEDTAVYYCAAETFIWGQGTQVTVSS”, the “polyreactivity (PSR sort gate)” value is “low polyreactivity”.

As for “QVHLVESGGGLVQAGGSLRLSCAASGRIFWLYAMGWYRQAPGKERELVAAISSGGSTSYADSVKGRFTISRDNAKNTVYLQMNSLKPEDTAVYYCNATLLFPLLYGPESGEFDYWGQGTQVTVSS”, the “polyreactivity (PSR sort gate)” value was “low polyreactivity”.

Take “QLQLVESGGGLVQAGGSLRLSCAASGSIFRWYTMGWYRQAPGKERELVAAISSGGSTNYADSVKGRFTISRDNAKNTVYLQMNSLKPEDTAVYYCAARAIYKSKYDYWGQGTQVTVSS”: the “polyreactivity (PSR sort gate)” value was “high polyreactivity”.

Turning to “QVQLVESGGGLVQAGGSLRLSCAASGRTFLLNAMGWYRQAPGKERELVAAITRSGVITYYADSVKGRFTISRDNAKNTVYLQMNSLKPEDTAVYYCAAQLRYSYLRPSYYYWGQGTQVTVSS”, the “polyreactivity (PSR sort gate)” value was “high polyreactivity”.
